{"source": "paper PMC3060684", "binders": {"B1": {"name": "LumFD (LumFDs/LumFDa) (dsDNA)", "DNA 1": "AAGTGAAAAAAAAAAGAGCTATTCGAAGGG", "DNA 2": "GATTCCCTTCGAATAGCTCTTTTTTTTTTC"}, "B2": {"name": "LumF (LumFs/LumFa) (dsDNA)", "DNA 1": "B1 DNA 1 with C19A", "DNA 2": "B1 DNA 2 with G16T"}, "B3": {"name": "LumM (LumMs/LumMa) (dsDNA)", "DNA 1": "TAAGTAGATATTGAAAGCAAGATTGAAAAAAATGTTG", "DNA 2": "AATCAAACATTTTTTTCAATCTTGCTTTCAATATCT"}, "B4": {"name": "LumMD (LumMDs/LumMDa) (dsDNA)", "DNA 1": "B3 DNA 1 with A8C", "DNA 2": "B3 DNA 2 with T34G"}}, "key": {"GST-CCA1 [1]": {"target": "T1, GST-CCA1 (Arabidopsis thaliana, UniProt P92973 1-608)", "T1 sequence (P92973 whole entry)": "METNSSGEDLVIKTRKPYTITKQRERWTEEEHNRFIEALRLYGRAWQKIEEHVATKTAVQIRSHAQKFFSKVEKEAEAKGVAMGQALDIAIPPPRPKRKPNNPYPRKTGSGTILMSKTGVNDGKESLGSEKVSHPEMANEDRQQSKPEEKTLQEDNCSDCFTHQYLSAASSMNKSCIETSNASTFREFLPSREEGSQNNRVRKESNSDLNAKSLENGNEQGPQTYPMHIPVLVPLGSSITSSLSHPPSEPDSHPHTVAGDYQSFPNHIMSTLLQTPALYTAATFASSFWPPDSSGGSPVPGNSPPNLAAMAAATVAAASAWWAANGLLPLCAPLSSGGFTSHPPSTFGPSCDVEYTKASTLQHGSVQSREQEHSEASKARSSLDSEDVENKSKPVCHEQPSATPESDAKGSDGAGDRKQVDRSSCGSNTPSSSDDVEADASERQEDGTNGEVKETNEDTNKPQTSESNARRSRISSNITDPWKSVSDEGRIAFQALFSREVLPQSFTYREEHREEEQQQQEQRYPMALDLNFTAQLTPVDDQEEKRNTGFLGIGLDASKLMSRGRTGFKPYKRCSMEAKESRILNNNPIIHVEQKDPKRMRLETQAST", "experiment": "EMSA"}, "GST-CCA1 [2]": {"target": "T1, GST-CCA1", "experiment": "EMSA", "remark": "listed apart in the source"}}, "note": "Numbering of substitutions follows the chain as printed. Read-outs that look alike come from different tables or passages of the source.", "data": [{"binder": "B1", "values": [{"measurement": "binding result", "setting": "GST-CCA1 [1]", "value": "no binding"}]}, {"binder": "B2", "values": [{"measurement": "binding result", "setting": "GST-CCA1 [2]", "value": "binds"}]}, {"binder": "B3", "values": [{"measurement": "binding result", "setting": "GST-CCA1 [2]", "value": "binds"}]}, {"binder": "B4", "values": [{"measurement": "binding result", "setting": "GST-CCA1 [1]", "value": "no binding"}]}]}
